Results reported in patent US9926369B2, “Methods for treating hepatocellular cancer by administering an anti-Ang-2 antibody” (Regeneron Pharmaceuticals, Inc., priority 2009, dated 2018).
pIC50: −log10 of the molar value.

Target: T1, hAng-2 WT binding to Tie-2 (Homo sapiens, UniProt O15123)
T1 construct: Full-length human Ang-2 or Ang-1 protein conjugated to 6× histidine tag (R&D Systems, Minneapolis, Minn.); purchased R&D Systems
T1 sequence (O15123 19-496): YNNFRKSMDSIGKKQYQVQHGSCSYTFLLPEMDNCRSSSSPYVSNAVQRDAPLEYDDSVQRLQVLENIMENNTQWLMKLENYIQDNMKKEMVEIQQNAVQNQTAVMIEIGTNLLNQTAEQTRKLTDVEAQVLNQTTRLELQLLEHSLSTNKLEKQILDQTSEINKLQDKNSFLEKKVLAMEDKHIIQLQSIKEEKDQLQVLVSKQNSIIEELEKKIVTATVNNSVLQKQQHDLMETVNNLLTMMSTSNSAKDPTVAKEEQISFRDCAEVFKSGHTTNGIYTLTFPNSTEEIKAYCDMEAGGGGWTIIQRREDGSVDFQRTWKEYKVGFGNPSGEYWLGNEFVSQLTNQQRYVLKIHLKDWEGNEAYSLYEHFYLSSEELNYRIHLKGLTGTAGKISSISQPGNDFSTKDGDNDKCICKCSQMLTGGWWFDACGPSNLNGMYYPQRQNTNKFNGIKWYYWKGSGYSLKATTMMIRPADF
Assay: ELISA blocking of full-length hAng-2 WT binding to hTie-2-mFc
Assay type: biochemical
Procedure: The ELISA experiments shown in this Example were conducted in a similar manner to the experiments of Example 5. Briefly, hTie-2-mFc (a chimeric construct consisting of human Tie-2 conjugated to mouse IgG; SEQ ID NO:525) was coated onto 96-well plates at a concentration of 2 μg/ml and incubated overnight followed by washing four times in wash buffer (PBS with 0.05% Tween-20). The plate was then blocked with PBS (Irvine Scientific, Santa Ana, Calif.) containing 0.5% BSA (Sigma-Aldrich Corp., St. Louis, Mo.) for one hour at room temperature. In a separate plate, purified anti-Ang-2 antibodies and control constructs, at a starting concentration of 300 nM, were serially diluted by a factor of three across the plate. Full-length human Ang-2 or Ang-1 protein conjugated to 6× histidine tag (R&D Systems, Minneapolis, Minn.) were added to a final concentration of 0.6 nM and incubated for one hour at room temperature. The antibody/antigen mixture was then added to the plate containing hTie-2-mFc and incubated for one hour at room temperature. Detection of Ang-2-His or Ang-1-His bound to hTie-2-mFc protein was determined with Horse-Radish Peroxidase (HRP) conjugated to a-Penta-His antibody (Qiagen, Valencia, Calif.) and developed by standard colorimetric response using tetramethylbenzidine (TMB) substrate (BD Biosciences, San Jose, Calif.). Absorbance was read at OD450 for 0.1 sec. […]

Q: What does the source list for “H1H685P: human anti-Ang-2 antibody, HCVR/LCVR SEQ ID NOs 18/20; also referred to as mAb1 [Antibody H1H685P]”?
A: pIC50 (0.6 nM hAng-2-His, read-out: (1) Blocking hAng-2 WT to Tie-2 IC50): 9.89; (3) Fold Difference in hAng-1 Blocking IC50 Compared to h-Ang-2 Blocking IC50 (hAng-1 blocking IC50 divided by hAng-2 blocking IC50): >2318
